Experiment [1] addresses mouse EGFR (cell surface) (mouse) (UniProt Q01279). Kind of experiment: FACS binding to W562-CHO-K1.mPro1.F3 cells (mouse EGFR), lower panel and table; EC50 cell reads N/A, curve flat.
The target in experiment [2] is human EGFR (cell surface) (human) (UniProt P00533). Kind of experiment: FACS competition on A431 cells, blocked ligand EGF-biotin, MFI is the EGF-biotin signal; upper panel and table; IC50 cell reads N/A, no inhibition.
Experiment [3] shares this target. Kind of experiment: FACS binding to A431 cells, lower panel and table; curve flat.
The target is the same in experiment [4]. Kind of experiment: FACS binding to A431 cells, upper panel and table; EC50 cell reads N/A, curve flat.
Experiment [5] has as its target Macaca fascicularis EGFR (cell surface) (Macaca fascicularis). Kind of experiment: FACS binding to W562.CHOK1.cPro1.H6 cells (monkey EGFR), upper panel and table; curve flat.
The target is the same in experiment [6]. Kind of experiment: FACS binding to W562.CHOK1.cPro1.H6 cells (monkey EGFR), upper panel and table; the curve is flat at the baseline, so this is the fit of a flat curve (see non_binding).
The target of experiment [7] is human EGFR (cell surface) (human) (UniProt P00533). Kind of experiment: FACS binding to A431 cells, lower panel and table; the curve is flat at the baseline, so this is the fit of a flat curve (see non_binding).
Experiment [8] shares this target. Kind of experiment: FACS competition on A431 cells, blocked ligand EGF-biotin, MFI is the EGF-biotin signal; lower panel and table; IC50 cell reads N/A, no inhibition.
The target in experiment [9] is mouse EGFR (cell surface) (mouse) (UniProt Q01279). Kind of experiment: FACS binding to mouse EGFR cells; the table head prints W562.CHOK1.cPro1.H6; EC50 cell reads N/A, curve flat.
Experiment [10] has as its target Macaca fascicularis EGFR (cell surface) (Macaca fascicularis). Kind of experiment: FACS binding to W562-CHO-K1.cPro1.H6 cells (monkey EGFR), lower panel and table; EC50 cell reads N/A, curve flat.

As for Isotype (antibody), the TOP MFI in experiment [1] came to 85.6 MFI; in experiment [3], 58.5 MFI; in experiment [10] it was 54.9 MFI. The Bottom MFI was 4680 MFI in experiment [2] and 3890 MFI in [8]. The figures for the Top MFI in [4], in experiment [5] and in experiment [9] were 35.1 MFI, 35.6 MFI and 32.3 MFI, respectively. For the same substance, the EC50 in experiment [6] amounted to 70 pM; in experiment [7] it was 10 pM.

(Values after patent US20210115146A1.)
